Source: publication PMC8960791 (Communications Biology, 2022)

molecular target: soluble HLA-E-VL9, HLA-E*01:03 heavy chain refolded with β2-microglobulin and synthetic VL9 peptide (Homo sapiens, HLA-E*01:03, strain)

Row | Binder | binding result
1 | CA176 (antibody, V domains shown) VH: QVQLVESGGGVVQPGRSLRLSCAASGFTFSSYGMHWVRQAPGKGLEWVAVISYDGSNKYYADSVKGRFTISRDNSKNTLYLQMNSLRAEDTAVYYCAKDEGSSDFWSGYYASFDYWGQGTLVTVSS VL: DIQMTQSPISLSASVGDRVTITCRASQDISNYLTWYQQKPGKAPKLLIYAASSLQSGVPSRFSGSGSGTDFTLTISNLQPEDFATYYCQQNYSYPCTFGQGTKVEIK | binds
2 | CA168 (antibody, V domains shown) VH: QVQLVQSGAEVKKPGSSVKVSCKASGGTFSSYAISWVRQAPGQGLEWMGGIIPIFGTANYAQKFQGRVTITADKSTSTAYMELSSLRSEDTAVYYCARALTYYDFPDYGMDVWGQGTTVTVSS VL: QSALTQPPSASGSPGQSVTISCTGTSSDVGGYNYVSWYQQHPGKVPKLMIYEVTKRPSGVPDRFSGSKSGNTASLTVSGLQAEDEADYYCSSYAGSNNLVFGGGTKLTVL | binds
3 | CA166 (antibody, V domains shown) VH: EVQLVESGGGLVKPGGSLRLSCAASGFTFSSYSMNWVRQAPGKGLEWVSSISSSSSYIYYADSVKGRFTISRDNAKNSLYLQMNSLRAEDTAVYYCARVMITFGGADYWGQGTLVTVSS VL: DIQMTQSPSSLSASVGDRVTITCRASQNINTYLNWYQKRPGIAPKLLIYGASSLQSGVPSRFSGSGSGTDFTLTISSLQPEDFATYYCQQYHTSPLTFGGGTPVDIK | binds
4 | CA170 (antibody, V domains shown) VH: EVQLVESGGGLVKPGGSLRLSCAASGFTFSSYSMNWVRQAPGKGLEWVSSISSSSSYIYYADSVKGRFTISRDNAKNSLYLQMNSLRAEDTAVYYCARDRDLLDAFDIWGQGTMVTVSS VL: SYVLTQPPSVSVAPGQTARITCGGNNIGSKSVHWYQQKPGQAPVLVVYDDSDRPSGIPERFSGSNSGNTATLTISRVEAGDEADYYCQVWDSSSDHPWVFGGGTKLTVL | binds
5 | CA175 (antibody, V domains shown) VH: EVQLVESGGGLVQPGGSLRLSCAASGFTFSTYPMNWVRQAPGKGLEWVSYISSSSSTIYYADCVKGRFTISRDNAKNSLYLQMNSLRDEDTAVYYCARYYIAYGMDVWGQGTTVTVSS VL: DIQMTQSPSSMSASVGDRVTITCRASQGISNYLAWFQQKPGKAPKRLIYGASSLHRGVPSRFSGSGSGTEFTLTITSLQPEDFATYYCLQHNTYPRTFGQGTKVEIK | binds
6 | CA180 (antibody, V domains shown) VH: QVQLVQSGAEVKKPGASVKVSCKASGYTFTSYGISWVRQAPGQGLEWMGWISAYNGNTNYAQKLQGRVTMTTDTSTSTAYMELRSLRSDDTAVYYCARDLGYSSSWYTSNWFDPWGQGTLVTVSS VL: QSALTQPASVSGSPGQSITISCTGTSSDVGSYNLVSWYQQHPGKAPKLMIYEGSKRPSGVSNRFSGSKSGNTASLTISGLQAEDEADYYCCSYAGSSTVVFGGGTKLTVL | binds
7 | CA173 (antibody, V domains shown) VH: EVQLVESGGGLVKPGGSLRLSCAASGFTFSSYSMNWVRQAPGEGLEWVSSISSSSTYIYYADSVKGRFTISRDNAKNSLYLQMNSLRAEDTAVYYCARDRPAGSSSLGSGYFDLWGRGTLVTVSS VL: not shown | binds
8 | CA169 (antibody, V domains shown) VH: EVQLVESGGGLVKPGGSLRLSCAASGFTFSSYSMNWVRQAPGKGLEWVSSISSSSSYIYYADSVKGRFTISRDNAKNSLYLQMNSLRAEDTAVYYCASGVLLEAFDYWGQGTLVTVSS VL: SYVLTQPPSVSVAPGQTARITCGGNNIGSKSVHWYQQKPGQAPVLVVYDDSDRPSGIPERFSGSNSGNTATLTISRVEAGDEADYYCQVWDSSSDHVVFGGGTKLTVL | binds
9 | CA177 (antibody, V domains shown) VH: RCSCRSRAPGLVKPSETLSLTCTVSGGSISSYYWSWIRQPPGKGLEWIGYIYYSGSTNYNPSLKSRVTISVDTSKNQFSLKLSSVTAADTAVYYCASHDYTDHAAGYWGQGTLVTVSS VL: not shown | binds
10 | CA163 (antibody, V domains shown) VH: QVQLVQSGAGASVKVSCKASGNTFTSYGISWVRQAPGQGLEWMGWIIPYNGNTNYAQKFQGRVTMTTDTSTSTAYMELRSLRSDDTAVYYCARDGEVGAFDNYYYYCGYGVIVTTAS VL: not shown | binds
11 | CA172 (antibody, V domains shown) VH: QVQLVESGGGLVKPGGSLRLSCAASGFTFSDYYMSWIRQAPGKGLEWVSYISSSSSYTNYADSVKGRFTISRDNAKNSLYLQMNSLRAEDTAVYYCARALRYFDWYDYWGQGTLVTVSS VL: EIVLTQSPDFQSVTPKGKVTITCRASQSIGSSLHWYQQKPDQSPKLLIKYASQSFSGVPSRFSGSGSGTEFTLTISSLQPEDFATYYCQQLNSYSPITFGQGTRLEIK | binds
12 | CA171 (antibody, V domains shown) VH: EVQLVESGGGLVQPGGSLRLSCAASGFTFSSYSMNWVRQAPGKGLEWVSYISSSSSTIYYADSVKGRFTISRDNAKNSLYLQMNSLRAEDTAVYYCARTFYSNYLDAFDIWGQGTMVTVSS VL: EIVLTQSPDTLSMCPGERATLSCRASQSVSSYLAWYQQKPGQAPRLLIYDASNRATGIPARFSGSGSGTDFTLTISSLEPEDFAVYYCQQRSNWLSMYTFGQGTKLEIK | binds
13 | CA178 (antibody, V domains shown) VH: QVQLVQSGAEVKKPGSSVKVSCKASGGTFSSYAISWVRQAPGQGLEWMGGIIPIFGTANYAQKFQGRVTITADESTSTAYMELSSLRSEDTAVYYCARDYGGSYYYEYFQHWGQGTLVTVSS VL: not shown | binds
